Biological target: the molecule itself
Test: cross-linking

Row | Protein | stoichiometry N
1 | recombinant human prolidase (rhPEPD) (enzyme) MAAATGPSFWLGNETLKVPLALFALNRQRLCERLRKNPAVQAGSIVVLQGGEETQRYCTDTGVLFRQESFFHWAFGVTEPGCYGVIDVDTGKSTLFVPRLPASHATWMGKIHSKEHFKEKYAVDDVQYVDEIASVLTSQKPSVLLTLRGVNTDSGSVCREASFDGISKFEVNNTILHPEIVECRVFKTDMELEVLRYTNKISSEAHREVMKAVKVGMKEYELESLFEHYCYSRGGMRHSSYTCICGSGENSAVLHYGHAGAPNDRTIQNGDMCLFDMGGEYYCFASDITCSFPANGKFTADQKAVYEAVLRSSRAVMGAMKPGVWWPDMHRLADRIHLEELAHMGILSGSVDAMVQAHLGAVFMPHGLGHFLGIDVHDVGGYPEGVERIDEPGLRSLRTARHLQPGMVLTVEPGIYFIDHLLDEALADPARASFLNREVLQRFRGFGGVRIEEDVVVTDSGIELLTCVPRTVEEIEACMAGCDKAFTPFSGPK | 2
2 | rhPEPD^G278D, enzymatically inactive mutant of recombinant human prolidase (enzyme) MAAATGPSFWLGNETLKVPLALFALNRQRLCERLRKNPAVQAGSIVVLQGGEETQRYCTDTGVLFRQESFFHWAFGVTEPGCYGVIDVDTGKSTLFVPRLPASHATWMGKIHSKEHFKEKYAVDDVQYVDEIASVLTSQKPSVLLTLRGVNTDSGSVCREASFDGISKFEVNNTILHPEIVECRVFKTDMELEVLRYTNKISSEAHREVMKAVKVGMKEYELESLFEHYCYSRGGMRHSSYTCICGSGENSAVLHYGHAGAPNDRTIQNGDMCLFDMDGEYYCFASDITCSFPANGKFTADQKAVYEAVLRSSRAVMGAMKPGVWWPDMHRLADRIHLEELAHMGILSGSVDAMVQAHLGAVFMPHGLGHFLGIDVHDVGGYPEGVERIDEPGLRSLRTARHLQPGMVLTVEPGIYFIDHLLDEALADPARASFLNREVLQRFRGFGGVRIEEDVVVTDSGIELLTCVPRTVEEIEACMAGCDKAFTPFSGPK | 2

Reference: publication PMC4465122 (EBioMedicine, 2015)
